The results in this text go back to PMC11178898, “A clade of receptor-like cytoplasmic kinases and 14-3-3 proteins coordinate inositol hexaphosphate accumulation” (Nature Communications, 2024).

One test has as its target IPK2β, Split-LUC fusion. In words: Split-LUC. Particulars: cluc-IPK2β, 35S::IPCK1-flag co-infiltrated (1:1:2), parent value is P2 (nluc-GRF4, cluc-IPK2β …), parent: 7442.09.
A further test addresses T1, IPK1-HIS (Arabidopsis thaliana, UniProt Q93YN9 1-451).
T1 construct: IPK1, inositol polyphosphate kinase, Arabidopsis thaliana; the CDS was cloned into pCOLD-TF; source: E. coli BL21 (DE3), pCOLD-TF, purified
T1 sequence (looked up): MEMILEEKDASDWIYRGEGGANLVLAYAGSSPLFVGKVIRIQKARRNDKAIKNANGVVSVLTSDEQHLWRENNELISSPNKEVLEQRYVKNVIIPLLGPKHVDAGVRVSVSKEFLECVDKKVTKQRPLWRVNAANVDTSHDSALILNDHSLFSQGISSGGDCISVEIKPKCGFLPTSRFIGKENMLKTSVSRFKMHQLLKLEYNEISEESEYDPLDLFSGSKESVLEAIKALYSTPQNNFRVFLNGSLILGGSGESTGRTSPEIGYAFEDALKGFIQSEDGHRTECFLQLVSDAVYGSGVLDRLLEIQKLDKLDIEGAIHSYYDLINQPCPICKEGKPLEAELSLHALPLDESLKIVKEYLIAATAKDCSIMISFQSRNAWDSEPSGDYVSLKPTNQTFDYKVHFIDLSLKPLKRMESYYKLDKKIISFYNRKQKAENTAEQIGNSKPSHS
In words: pull-down; in vitro; GST- and HIS-tagged proteins from E. coli BL21 (DE3); bait on GST or Ni-NTA beads, incubated with the protein of the other tag on ice for 2 h, washed with PBS, blot with anti-HIS and anti-GST. The conditions noted are these: both partners purified.

Regarding “GRF4, Split-LUC fusion (from UniProt P46077) S242A”, the response (cps (average)) in the test with IPK2β, Split-LUC fusion (P3: nluc-GRF4 S242A, Total cps 452167, Areas 116.3) was found to be 3890.

As for “GRF4, Split-LUC fusion (from UniProt P46077) S242D”, the response (cps (average)) with IPK2β, Split-LUC fusion (P4: nluc-GRF4 S242D, Total cps 2045502, Areas 266) came to 7690.

B1: GRF4-GST (natural protein, Arabidopsis thaliana, UniProt P46077 1-267, looked up)
chain: MAAPPASSSAREEFVYLAKLAEQAERYEEMVEFMEKVAEAVDKDELTVEERNLLSVAYKNVIGARRASWRIISSIEQKEESRGNDDHVTTIRDYRSKIESELSKICDGILKLLDTRLVPASANGDSKVFYLKMKGDYHRYLAEFKTGQERKDAAEHTLTAYKAAQDIANAELAPTHPIRLGLALNFSVFYYEILNSPDRACNLAKQAFDEAIAELDTLGEESYKDSTLIMQLLRDNLTLWTSDMQDESPEEIKEAAAPKPAEEQKEI
notes: GRF4, 14-3-3 protein, Arabidopsis thaliana; the CDS was cloned into pGEX-4T-1; source: E. coli BL21 (DE3), held on GST beads
For the molecule B1, the binding result with IPK1-HIS was “binds”.
